# US20250085287A1 (ADICET THERAPEUTICS, published 2025)
# T1: recombinant human glypican-5 (rhGPC5) (human, UniProt P78333 25-551, limits assumed)
# T1 sequence (looked up): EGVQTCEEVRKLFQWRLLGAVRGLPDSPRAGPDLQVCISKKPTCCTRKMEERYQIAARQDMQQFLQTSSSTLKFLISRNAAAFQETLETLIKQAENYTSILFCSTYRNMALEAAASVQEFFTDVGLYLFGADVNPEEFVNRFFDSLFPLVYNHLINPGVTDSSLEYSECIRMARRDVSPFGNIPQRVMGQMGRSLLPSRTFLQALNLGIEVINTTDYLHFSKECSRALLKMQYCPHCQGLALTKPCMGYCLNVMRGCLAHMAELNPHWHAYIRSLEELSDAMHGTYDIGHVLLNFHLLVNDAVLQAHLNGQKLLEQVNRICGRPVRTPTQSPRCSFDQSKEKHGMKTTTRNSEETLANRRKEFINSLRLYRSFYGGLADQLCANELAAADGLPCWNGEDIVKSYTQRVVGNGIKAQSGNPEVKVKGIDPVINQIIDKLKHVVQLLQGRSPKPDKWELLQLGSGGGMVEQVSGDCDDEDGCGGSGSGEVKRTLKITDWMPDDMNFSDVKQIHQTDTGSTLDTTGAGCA
# T2: recombinant human glypican-6 (rhGPC6) (human, UniProt Q9Y625 24-529, limits assumed)
# T2 sequence (looked up): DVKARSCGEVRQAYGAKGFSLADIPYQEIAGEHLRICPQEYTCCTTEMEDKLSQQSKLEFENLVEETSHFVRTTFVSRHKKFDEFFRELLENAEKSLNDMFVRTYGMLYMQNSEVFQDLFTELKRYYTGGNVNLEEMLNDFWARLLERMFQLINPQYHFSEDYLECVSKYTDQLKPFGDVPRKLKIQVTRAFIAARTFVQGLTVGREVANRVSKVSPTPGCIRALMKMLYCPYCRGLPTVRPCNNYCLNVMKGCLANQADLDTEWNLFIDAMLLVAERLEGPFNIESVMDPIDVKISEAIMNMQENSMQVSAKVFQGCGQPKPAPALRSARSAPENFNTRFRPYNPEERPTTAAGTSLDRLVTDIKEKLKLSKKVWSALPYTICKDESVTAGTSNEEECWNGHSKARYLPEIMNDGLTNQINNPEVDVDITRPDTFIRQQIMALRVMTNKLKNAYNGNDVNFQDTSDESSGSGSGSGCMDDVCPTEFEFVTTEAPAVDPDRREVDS
# Legend:
# [1] = target: human GPC3 on tumor cells (membrane-associated GPC3 in FFPE xenograft tissue) (human) (UniProt P51654); experiment: IHC on FFPE xenograft tumor tissue; Hep3B, table row 2
# [2] = target: human GPC3 on tumor cells (membrane-associated GPC3 in FFPE xenograft tissue) (human) (UniProt P51654); experiment: IHC on FFPE xenograft tumor tissue, PP5 (PLC/PRF/5)
# [3] = target: human GPC3 on tumor cells (membrane-associated GPC3 in FFPE xenograft tissue) (human) (UniProt P51654); experiment: IHC on FFPE xenograft tumor tissue, Hep3B
# [4] = target: human GPC3 on tumor cells (membrane-associated GPC3 in FFPE xenograft tissue) (human) (UniProt P51654); experiment: IHC on FFPE xenograft tumor tissue; HepG2, table row 6
# [5] = target: human GPC3 on tumor cells (membrane-associated GPC3 in FFPE xenograft tissue) (human) (UniProt P51654); experiment: IHC on FFPE xenograft tumor tissue, cytoplasmic staining; Hep3B, table row 3
# [6] = target: human GPC3 on tumor cells (membrane-associated GPC3 in FFPE xenograft tissue) (human) (UniProt P51654); experiment: IHC on FFPE xenograft tumor tissue; HepG2, table row 5
# [7] = target: human GPC3 on tumor cells (membrane-associated GPC3 in FFPE xenograft tissue) (human) (UniProt P51654); experiment: IHC (DAB), implanted PP5 tumor (GPC3lo), middle row of images, 1G12 at 0.5 µg/mL
# [8] = target: human GPC3 on tumor cells (membrane-associated GPC3 in FFPE xenograft tissue) (human) (UniProt P51654); experiment: IHC on FFPE xenograft tumor tissue, cytoplasmic staining; Hep3B, table row 1
# [9] = target: human GPC3 on tumor cells (membrane-associated GPC3 in FFPE xenograft tissue) (human) (UniProt P51654); experiment: IHC on FFPE xenograft tumor tissue; Hep3B, table row 1
# [10] = target: human GPC3 on tumor cells (membrane-associated GPC3 in FFPE xenograft tissue) (human) (UniProt P51654); experiment: IHC on FFPE xenograft tumor tissue, Huh7
# [11] = target: human GPC3 on tumor cells (membrane-associated GPC3 in FFPE xenograft tissue) (human) (UniProt P51654); experiment: IHC (DAB), implanted PP5 tumor (GPC3lo), bottom row of images, 1G12 at 0.5 µg/mL
# [12] = target: human GPC3 on tumor cells (membrane-associated GPC3 in FFPE xenograft tissue) (human) (UniProt P51654); experiment: IHC (DAB), implanted HepG2 tumor (GPC3hi), 1G12 at 0.5 µg/mL
# [13] = target: human GPC3 on tumor cells (membrane-associated GPC3 in FFPE xenograft tissue) (human) (UniProt P51654); experiment: IHC on FFPE xenograft tumor tissue, HepG2
# [14] = target: human GPC3 on tumor cells (membrane-associated GPC3 in FFPE xenograft tissue) (human) (UniProt P51654); experiment: IHC on FFPE xenograft tumor tissue; HepG2, table row 4
# [15] = target: human GPC3 on tumor cells (membrane-associated GPC3 in FFPE xenograft tissue) (human) (UniProt P51654); experiment: IHC on FFPE xenograft tumor tissue; HepG2, table row 5 (so in the source); the four percentages of the row add up to 105
# [16] = target: human GPC3 on tumor cells (membrane-associated GPC3 in FFPE xenograft tissue) (human) (UniProt P51654); experiment: IHC on squamous cell carcinoma of the lung
# [17] = target: recombinant human glypican-3 (rhGPC3) (human) (UniProt P51654); experiment: BLI; antibody captured on IgG-Fc capture biosensor, antigen as analyte from 100 nM, 1:3 dilutions, global 1:1 fit
# [18] = target: human GPC3 on tumor cells (membrane-associated GPC3 in FFPE xenograft tissue) (human) (UniProt P51654); experiment: IHC on FFPE xenograft tumor tissue; Hep3B, table row 3
# [19] = target: human GPC3 on tumor cells (membrane-associated GPC3 in FFPE xenograft tissue) (human) (UniProt P51654); experiment: IHC on FFPE xenograft tumor tissue, cytoplasmic staining; Hep3B, table row 2
# [20] = target: recombinant human glypican-3 (rhGPC3) (human) (UniProt P51654); experiment: BLI; antibody captured on IgG-Fc capture biosensor, antigen as analyte, global 1:1 fit
# [21] = target: human GPC3 on tumor cells (membrane-associated GPC3 in FFPE xenograft tissue) (human) (UniProt P51654); experiment: IHC on FFPE xenograft tumor tissue, cytoplasmic staining; HepG2
# [22] = target: human GPC3 on tumor cells (membrane-associated GPC3 in FFPE xenograft tissue) (human) (UniProt P51654); experiment: IHC on hepatocellular carcinoma
# [23] = target: human GPC3 on tumor cells (membrane-associated GPC3 in FFPE xenograft tissue) (human) (UniProt P51654); experiment: IHC on FFPE xenograft tumor tissue; Hep3B, table row 3 (so in the source); does not fit the 90 and the 255 of the same row
# [24] = target: recombinant human glypican-3 (rhGPC3) (human) (UniProt P51654); experiment: BLI; humanized GC33 captured on anti-human IgG-Fc biosensor, antigen as analyte from 100 nM, 1:3 dilutions, global 1:1 fit
# [25] = target: T1, recombinant human glypican-5 (rhGPC5); experiment: western blot, primary antibody 1 ug/mL
# [26] = target: T2, recombinant human glypican-6 (rhGPC6); experiment: western blot, primary antibody 1 ug/mL
# [27] = target: recombinant human glypican-3 (rhGPC3) (human) (UniProt P51654); experiment: BLI in-tandem cross-competition; biotinylated antigen on SA biosensor saturated with 150 nM GC33 (competitor), then 150 nM 204
# [28] = target: recombinant human glypican-3 (rhGPC3) (human) (UniProt P51654); experiment: BLI in-tandem cross-competition; biotinylated antigen on SA biosensor saturated with 150 nM 204 (self-blocking), then 150 nM 204
# [29] = target: recombinant human glypican-3 (rhGPC3) (human) (UniProt P51654); experiment: BLI in-tandem cross-competition; buffer only, no saturating antibody (maximal binding reference)
# [30] = target: recombinant human glypican-3 (rhGPC3) (human) (UniProt P51654); experiment: BLI; antibody captured on anti-mouse IgG-Fc biosensor, antigen as analyte from 100 nM, 1:3 dilutions, global 1:1 fit
# [31] = target: recombinant human glypican-3 (rhGPC3) (human) (UniProt P51654); experiment: BLI; antibody captured on anti-mouse IgG-Fc biosensor, antigen as analyte, global 1:1 fit
# Chain of recombinant human glypican-3 (rhGPC3) (human) (P51654 25-559): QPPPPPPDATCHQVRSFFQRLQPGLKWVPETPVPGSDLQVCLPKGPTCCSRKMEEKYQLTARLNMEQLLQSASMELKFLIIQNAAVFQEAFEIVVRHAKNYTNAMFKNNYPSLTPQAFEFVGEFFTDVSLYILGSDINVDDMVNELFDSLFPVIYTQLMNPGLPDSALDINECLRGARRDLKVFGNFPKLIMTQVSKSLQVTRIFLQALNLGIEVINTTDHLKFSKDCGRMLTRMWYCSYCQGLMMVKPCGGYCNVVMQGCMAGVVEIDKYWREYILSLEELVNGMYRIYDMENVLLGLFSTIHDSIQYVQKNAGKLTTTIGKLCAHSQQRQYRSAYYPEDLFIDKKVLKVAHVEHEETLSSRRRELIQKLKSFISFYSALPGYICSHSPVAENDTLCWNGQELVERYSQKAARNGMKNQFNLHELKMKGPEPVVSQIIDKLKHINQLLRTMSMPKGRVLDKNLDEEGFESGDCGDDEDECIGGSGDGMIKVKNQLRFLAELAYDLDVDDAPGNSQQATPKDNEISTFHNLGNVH
# Chain of human GPC3 on tumor cells (membrane-associated GPC3 in FFPE xenograft tissue) (human) (P51654 25-554 limits assumed): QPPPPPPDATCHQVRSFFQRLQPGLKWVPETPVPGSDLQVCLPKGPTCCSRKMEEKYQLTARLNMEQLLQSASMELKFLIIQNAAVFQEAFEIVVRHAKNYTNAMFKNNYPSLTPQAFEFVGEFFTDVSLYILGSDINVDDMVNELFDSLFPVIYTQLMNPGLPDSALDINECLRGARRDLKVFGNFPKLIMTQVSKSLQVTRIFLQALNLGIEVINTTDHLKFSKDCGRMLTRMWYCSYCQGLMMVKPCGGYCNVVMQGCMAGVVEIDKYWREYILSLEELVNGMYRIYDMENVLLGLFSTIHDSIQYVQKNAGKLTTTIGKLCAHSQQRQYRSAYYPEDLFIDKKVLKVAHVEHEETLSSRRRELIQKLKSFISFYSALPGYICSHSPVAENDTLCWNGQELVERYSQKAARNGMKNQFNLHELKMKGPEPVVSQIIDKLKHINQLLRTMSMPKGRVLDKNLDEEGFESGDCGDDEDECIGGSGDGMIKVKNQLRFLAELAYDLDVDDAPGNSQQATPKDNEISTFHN
# Chain of GC33 anti-GPC3 antibody (VH): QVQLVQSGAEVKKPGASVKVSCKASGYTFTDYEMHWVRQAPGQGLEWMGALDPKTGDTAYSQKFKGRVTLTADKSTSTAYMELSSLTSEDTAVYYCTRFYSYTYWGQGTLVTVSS
# Chain of GC33 anti-GPC3 antibody (VL): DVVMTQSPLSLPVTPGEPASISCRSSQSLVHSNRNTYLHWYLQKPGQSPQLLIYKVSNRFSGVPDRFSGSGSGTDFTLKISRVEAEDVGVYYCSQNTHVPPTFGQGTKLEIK
molecule,measurement,setting,value
1G12 anti-GPC3 monoclonal antibody,"% Tumor Cells Positive - Membranous Staining, intensity 0",[1],0%
same,"% Tumor Cells Positive - Membranous Staining, intensity 1+",[1],5%
same,"% Tumor Cells Positive - Membranous Staining, intensity 2+",[1],15%
same,"% Tumor Cells Positive - Membranous Staining, intensity 3+",[1],80%
same,H-Score (membranous staining),[1],275
same,Mod/High Intensity (2/3+),[1],95%
same,Membrane-bound GPC3 H-score,[2],75
same,Membrane-bound GPC3 H-score,[3],265
same,"% Tumor Cells Positive - Membranous Staining, intensity 0",[4],5%
same,"% Tumor Cells Positive - Membranous Staining, intensity 1+",[4],10%
same,"% Tumor Cells Positive - Membranous Staining, intensity 2+",[4],5%
same,"% Tumor Cells Positive - Membranous Staining, intensity 3+",[4],80%
same,H-Score (membranous staining),[4],260
same,Mod/High Intensity (2/3+),[4],85%
same,Average Intensity of cytoplasmic staining,[5],1 +
same,"% Tumor Cells Positive - Membranous Staining, intensity 0",[6],5%
same,"% Tumor Cells Positive - Membranous Staining, intensity 1+",[6],10%
same,"% Tumor Cells Positive - Membranous Staining, intensity 2+",[6],45%
same,H-Score (membranous staining),[6],220
same,Mod/High Intensity (2/3+),[6],85%
same,Membrane-associated H-Score,[7],130
same,Average Intensity of cytoplasmic staining,[8],1 +
same,"% Tumor Cells Positive - Membranous Staining, intensity 0",[9],5%
same,"% Tumor Cells Positive - Membranous Staining, intensity 1+",[9],5%
same,"% Tumor Cells Positive - Membranous Staining, intensity 2+",[9],10%
same,"% Tumor Cells Positive - Membranous Staining, intensity 3+",[9],80%
same,H-Score (membranous staining),[9],265
same,Mod/High Intensity (2/3+),[9],90%
same,Membrane-bound GPC3 H-score,[10],80
same,Membrane-associated H-Score,[11],90
same,Membrane-associated H-Score,[12],285
same,Membrane-bound GPC3 H-score,[13],260
same,"% Tumor Cells Positive - Membranous Staining, intensity 0",[14],5%
same,"% Tumor Cells Positive - Membranous Staining, intensity 1+",[14],20%
same,"% Tumor Cells Positive - Membranous Staining, intensity 2+",[14],50%
same,"% Tumor Cells Positive - Membranous Staining, intensity 3+",[14],25%
same,H-Score (membranous staining),[14],195
same,Mod/High Intensity (2/3+),[14],75%
same,"% Tumor Cells Positive - Membranous Staining, intensity 3+",[15],45%
same,Membrane-bound GPC3 H-score,[16],90
same,Kd,[17],3 nM
same,"% Tumor Cells Positive - Membranous Staining, intensity 0",[18],5%
same,"% Tumor Cells Positive - Membranous Staining, intensity 1+",[18],5%
same,"% Tumor Cells Positive - Membranous Staining, intensity 2+",[18],20%
same,H-Score (membranous staining),[18],255
same,Mod/High Intensity (2/3+),[18],90%
same,Average Intensity of cytoplasmic staining,[19],1 +
same,koff,[20],0.00053 s⁻¹
same,kon,[20],170000 M⁻¹ s⁻¹
same,Average Intensity of cytoplasmic staining,[21],2 +
same,Membrane-bound GPC3 H-score,[22],110
same,"% Tumor Cells Positive - Membranous Staining, intensity 3+",[23],20%
GC33 anti-GPC3 antibody,Kd,[24],1 nM
"204 monoclonal antibody (mouse anti-human GPC3) (antibody, IgG2b, V domains shown, also called GPC.204) VH: EVQLQQSGPELVKPGASVKISCKTSGYTFTEYAMHWVKQSHGKSLEWIGGINPNNGVTTYNQRFKGKATLTVDKSSSTAYMELRSLTSEDSAVYYCARGLLWYAYWGQGTLVTVSA VL: DIKMTQSPSSMYASLGERVTITCKASQDINSYLSWFQQKPGKSPKTLIYRANRLVDGVPSRFSGSGSGQDYSLTISSLEYEDMGIYYCLQYDEFPLTFGAGTKLELK",binding result,[25],no binding
same,binding result,[26],no binding
same,% Binding of Competing Antibody,[27],89.9%
same,% Binding of Competing Antibody,[28],18.2%
same,% Binding of Competing Antibody,[29],100%
same,Kd,[30],2.5 nM
same,koff,[31],0.0021 s⁻¹
same,kon,[31],820000 M⁻¹ s⁻¹
